Here are results for 14 sequences from a protein production outcome set (Wang et al. 2014).

This series in a line: label from the status in PepcDB records.
“MSLSIVENGRKLESTIDFSRFAQEIKQNGWKIMLAGLIVAVVAYPLISMITPKYVSTATVLLKAQQDNVSPLPQVDGYDSTRSGYYETQYALMQSRIVLEQAVRDIKLDQNPAFNGDTDKNADHRGDEQQRVDHALDSIVKNLTITGVRTTHLATISYESASPELAADIANGAAQAFIDYTARQKHLKTLKAKALNQKQMEEVWQQVVEQQAAIDQFLKKEGLLTFRGVDGFETEQLGIVTTKLADATQRRIRAETNDNSVRSNAGTSLENIISLPDISNHAQIQDLRIALIQARRSLYDLRKRYGVKHTKILEAEAQVQAIEEQTHTVLLELKAGLNKQYQAALRDEKYYQQLLEQQKVDFQTLASKRDEYNNLTTALNKTKELYKALYQRTKEQTLAGNYLEPDAILYDPAVPADHPSKPNKAMLLVMVVMLTLIFSVVYFIVRAALDNSINSISQMKKRLNVAPVGEIRTFASGVERSKVVRLITKAPLDVDIVHSMRTHILLSHPSCQAIAISSAEHGEGRSLLAHLLARSFSADQKTLLIDLDFFNDGGLTQDLANPSAIGVAELLQGQSPLDAALVIISENLSFLPRGNAVMSSLLMLSSEHVVTLMAELRTRYQRIIVDVAAVNQTQDSQLISRVIDGVVFVLKAGEWRAGDVLNAIDKVKQHRAVLIGAVMNRVADKNLETKEGIRSLNHRMNALINSTGHL”: the protein production result was “failed”.

Regarding “LVVSEARFRAAIDAVQGVLWTNNASGKMVGEQPGWSALTGQIREEYEGVGWTKVVHPDDVEPTLSAWLAAVAEKRTFEFEHRVRRHDGVWRDCLIRAVPLIGDNGEIREWVGVHTDISEQKAAAEK”, the protein production result was “failed”.

For “MLRSLLVPLFSNAASSTDDHGITLPQYQVFINFRGDELRNSFVGFLVKAMRLEKINVFTDEVELRGTNLNYLFRRIEESRVAVAIFSERYTESCWCLDELVKMKEQMEQGKLVVVPVFYRLNATACKRFMGAFGDNLRNLEWEYRSEPERIQKWKEALSSVFSNIGLTSDIRRYNLINKNMDHTSEFLYIVLILNFFSEISDMTGLTTSYQFLLMMKSNLISYDIYIYPTKFCVNVFIGV”, the protein production entry is “failed”.

For “MTGPTTDADAAVPRRVLIAEDEALIRMDLAEMLREEGYEIVGEAGDGQEAVELAELHKPDLVIMDVKMPRRDGIDAASEIASKRIAPIVVLTAFSQRDLVERARDAGAMAYLVKPFSISDLIPAIELAVSRFREITALEGEVATLSERLETRKLVERAKGLLQTKHGMTEPDAFKWIQRAAMDRRTTMKRVAEVVLETLGTPKDT”, the protein production result was “not failed”.

“MTEVAHTASGSTNTMDREGLPVAETTCAPGLPLWARPEARTALGDTLRPGGFSLTDRLATLAGVHPGWRVLDVGCGTGATVLHLRQRYGASAFGCDRSTSLTPGSNNHKGLPVIAADAANLPFADGSMKMVFCECVLSLLVKPLEVLRGLRRLLVPGGLLGVSDLYLRGEGHARVTEGSCLAWQATRMRIESLLHEAGFALHTFEDHSPLLRETAARLALSGALHGGAMNCGERAFPSRDACRRCSPEGIAAPPQATPCSMTECSFSPPATRAVTEQVARPGYFLLLAQSLKGTRED”: the protein production result is “failed”.

With “MSKVIIPKIVGHRGVGKEGLAPENTLRSFVLCMERNIPYIETDLRVCKTGEIVLFHGTPEGTIPFYKDGTSRIGDLSLEELKRLDVGGGHTIPSLEELFVAIEEQKFNLKLNLELKGEEWKRKESGDHQRLLLLVEKYHMQERVDYCSFHHEALAHLKALCPDVKITYLFNYMGQPTPLDFVEQTQKACYGDANGVSMLFHYLTKEQVCTAHEKGLSVTVWMPWIFDDSEEDWKKCLELQVDLICSNYPFGLMNFLSNISE”, the protein production entry is recorded as “not failed”.

With “MLATPFWYNAALKVLKPVYRWRIKKRAENEMRYQQECRERFGPFQQPQNRHALWFHAVSVGETNAAQPLIEYYLKLGHPVLVTNTTKTGQARAKSLFLKSPYLELFQAVYLPVDQIFLLKQFFELYQPKLLALVETELWPNLIDQAQHYGVPTFLINARLSEKSAQGYARVSALSNAMLSRLTGLLAQDQSTQQRFIGLGLAREKAQVVGNIKFDIDVPLEHHHHHH”, the protein production entry is reported as “failed”.

Turning to “YAMSIYAAQHDVRIVNPYFVPTSSIRKALKRALNRGTKVEIMISSKSDIPFTPDASLYAVQKLMKKGAMIYLYNGGFHHSKIMMVDDLFCTVGTANLNSRSLRYDYETNAFIFDKDITQQLNDVFEADMLHCTRLTPEMWKQKSAWKKFKCWFANLFTPFL”, the protein production entry is listed as “failed”.

As to “MRVDIVPVGDVPAHVKRQASSSLRSVYDCEVVVASEQDVPTAAYDEARSQYRAAEFIDTATRATSGDKTIAITPHDLFYRRRNYVFGLAYLDGRGCVVSTYRLQTSSDGGFSNRSSSDVFDDRVRKEVVHELGHTLGLEHCDNNRCAMNFSPTVREVDRKEENLCGSCQRTVFLEHHHHHH”, the protein production result was “not failed”.

“MMIMLSKRPVAMRIALRPLALAASLILSTPFALNATTFGTDLLEGQVLDGIGTGAGNLGTVADIQNTLSNMLRDEAAIGTLASVLPQALQRLPDDRQLRLLQAVVWAATRRDDDARAQMAQIGQEPPNVWRHVAEGLIARNAGDLARAAASLDEARALDPDNAYVHNTAGSIAFAAGDLEAAQEHFAQAVKSAPGWPRLLRQPCRHDDRTRQSARGPDHSGRKPPSPSRLLRHPPDGGRGASVARAVGCCRSRAAHLP”: the protein production result is “failed”.

For “MSENTKVEAKRVFIGAGCNRVVNNVSWGASGLVSFGAQNAVAVFCPKTAQILTTLPGHKASVNCTHWLPTSKFAFKAKKLDRQYLLSGDSDGIIILWELSTLNNDQQWRHVLQLPLSHKKGVTCITAYMVSETDAMFASASSDGVVNVWDVSFPSQPSEECKVVCLDSICVDTKAIVTLSLAELPQNPGRFALALGGLDNKIKLYSGERTGKFTSVCELKGHTDWIRSLDFSLPLHTTEEIPNSIMLVSSSQDKVIRIWKLVLVGDVGSWRREITLASYIEGPVFVSGTFTYQISVESVLIGHEDWVYSVEWQPPVIDFIDGRLVNHQPLSILSASMDKTMMIWRPEKKTGVWVNVVCVGELSHCALGFYGGHWSPNSLSILAHGYGGAFHLWRNVSSSKESENWQMQKVPSGHFAAVTDVTWARTGEYLLSVSQDQTTRVFSAWKNDEGNEAEDEHWHELARPQVHGHDINCVAMVQGKGNHRFVSGAEEKVVRVFEAPLSFLKTLNHTCAGGEGSFPEDLQADVQVLGANMSALGLSQKPIYLHSSSEPLERNGGGEGLDTFETVPEAAPAELKEPPIEDQLAFHTLWPESHKLYGHGNELFSLCSDHKGNLVASSCKAQSASMAEIWLWEVGTWKAVGRLQSHSLTVTHLEFSYDDTLLLSVSRDRHFSVFSIQRTDNGEVSHKLMAKVEAHKRIIWACSWNPFGHQFATSSRDKTVKIWSVENDARIKQILVLPPFGSSVTAVAWTGLDRNEKSGCVAVGMESGLIELSNVKIIETEEGTTATAALALRLEPFMCHVSAVNRLAWRPTEKCESNQSLRWLTSCGDDNCVRVFNFKF”, the protein production entry is on record as “failed”.

As to “MGVLRPAAPITGTPNTRLTPVRRRLPTAEAKPTPRFNTPTNKLPEQMSSESPRNPLLDTWTETSSHMFNSVVAANRAAFAAFGVQQEEENGVTPAERIEPDEDLPEWHVSISEEHPGRLGVGDHVDFTKTISEHDVQQFAAASGDTNPLHLDDEFAEQTRFRGRIAHGTLVGSLISAALARLPGLTIYLSQDLEFHNPVRIGDRLTAECEIVEDLGDEQYRLTTRVLADDEVVIDGEAVVLIDDLPE”, the protein production entry is recorded as “failed”.

Regarding “MAAGFFQAEMSILSSTLARSYSLPIRKTLMTFDFRIAMQRNPCLRIRRSCVAAFSSTPSHSRNFPIRGLEDVFVGYLFGRKKATEVAHVVWEQVIQKGDTVIDATCGNGNDTLAMLKMVMHDSVGCGGYVYAMDIQKDAIESTSSLLDQAVGSKEKECVKLFNLCHSKMGEIVPENARVRMVAFNLGYLPGGNKSIITLSDTTLSALKAAERILKPGGLISLVVYIGHPGGREELEVVEAFGSGLPVSDWICCKFQMLNRPLAPVLVFMFKREN”, the protein production entry was “failed”.

Turning to “MENPDSAFLLFRNAPRLPLATMHTPLCGDSHQPDFAFRKPARDALLRPWNGRNHRCGLQDGREICQGQLPAHQKSYWSDCAALPRLFRAYGGAVVRGFLIVGNKAFTQPFSLNDLPGAGRMDVLCRCTSQALFISHGIRRDVEVYLLLLGPPSPPKSILIKGDEVRRMSPDERNVAGHIKKALAVECGKSWKKVHSGVYVSRKGLEELIEELSEKYSIIYLKEDGVDISNAQLPPNPLFVIGDHEGLTEEQEKVVERYAALKLSLSPLSLLAEQCVVIAHHHLDRLQF”, the protein production result is “failed”.
